In US20100172907A1 (Hoffmann-La Roche, published 2010):

How the values were obtained:
human Aβ (1-40) peptide = target: T1, human Aβ (1-40) peptide (human); assay: SPR, immobilized fibers;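 note: biacore SPR using in vitro grown Aβ1-40 or Aβ1-42 fibrils immobilized on the chip with Fab analytes, KD from koff/kon fits or equilibrium isotherms based on total Fab concentration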
T1 construct: also called Aβ1-40 fibers

Aβ (1-42) peptide = target: T2, Aβ (1-42) peptide (human); assay: SPR, immobilized fibers;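 note: biacore SPR using in vitro grown Aβ1-40 or Aβ1-42 fibrils immobilized on the chip with Fab analytes, KD from koff/kon fits or equilibrium isotherms based on total Fab concentration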
T2 construct: also called Aβ1-42 fibers; Aβ4

Binder | Kd (human Aβ (1-40) peptide) [nM] | Kd (Aβ (1-42) peptide) [nM]
MS-Roche #7.2.H7 Fab (Fab, V domains shown) VH: QVQLVESGGGLVQPGGSLRLSCAASGFTFSSYAMSWVRQAPGKGLEWVSAINSRGSDTHYADSVKGRFTISRDNSKNTLYLQMNSLRAEDTAVYYCARGKGNTHKPYGYVRYFDVWGQGTLVTVSS VL: DIVLTQSPATLSLSPGERATLSCRASQSVSSSYLAWYQQKPGQAPRLLIYGASSRATGVPARFSGSGSGTDFTLTISSLEPEDFATYYCQQIYSFPHTFGQGTKVEIKR | 15.5 | 8.1
MS-Roche #7.2.L2 Fab (Fab, V domains shown) VH: not shown VL: DIVLTQSPATLSLSPGERATLSCRASQYISFRYLAWYQQKPGQAPRLLIYGASSRATGVPARFSGSGSGTDFTLTISSLEPEDFATYYCQQIYSFPHTFGQGTKVEIKR | 5.6 | 4
MS-Roche #7.3.L1 Fab (Fab, V domains shown) VH: not shown VL: DIVLTQSPATLSLSPGERATLSCRASQYLHYGYLAWYQQKPGQAPRLLIYGASSRATGVPARFSGSGSGTDFTLTISSLEPEDFAVYYCHQVYSHPFTFGQGTKVEIKR | 4.5 | 6
MS-Roche #7.3.H1 Fab (Fab, V domains shown) VH: QVQLVESGGGLVQPGGSLRLSCAASGFTFSSYAMSWVRQAPGKGLEWVSAISAISNKTYYADSVKGRFTISRDNSKNTLYLQMNSLRAEDTAVYYCARGKGNTHKPYGYVRYFDVWGQGTLVTVSS VL: not shown | 8 | 11.2

Stronger by Kd (human Aβ (1-40) peptide), values ahead:

Kd (human Aβ (1-40) peptide) [nM] | Kd (Aβ (1-42) peptide) [nM] | Binder
1 | – | MS-Roche #7.2.H6 Fab (Fab, V domains shown) VH: QVQLVESGGGLVQPGGSLRLSCAASGFTFSSYAMSWVRQAPGKGLEWVSAINARGNRTYYADSVKGRFTISRDNSKNTLYLQMNSLRAEDTAVYYCARGKGNTHKPYGYVRYFDVWGQGTLVTVSS VL: DIVLTQSPATLSLSPGERATLSCRASQSVSSSYLAWYQQKPGQAPRLLIYGASSRATGVPARFSGSGSGTDFTLTISSLEPEDFATYYCQQIYSFPHTFGQGTKVEIKR
1.7 | 1.8 | MS-Roche #7.9.H5 Fab (Fab, V domains shown, assembled) VH: QVQLVESGGGLVQPGGSLRLSCAASGFTFSSYAMSWVRQAPGKGLEWVSAINHAGNKKYYADSVKGRFTISRDNSKNTLYLQMNSLRAEDTAVYYCARGKGNTHKPYGYVRYFDVWGQGTLVTVSS VL: DIVLTQSPATLSLSPGERATLSCRASQSVSSSYLAWYQQKPGQAPRLLIYGASSRATGVPARFSGSGSGTDFTLTISSLEPEDFATYYCLQIYNMPITFGQGTKVEIKR
1 | 0.9 | MS-Roche #7.9.H7 Fab (Fab, V domains shown, also called MSR 7.9H7) VH: QVQLVESGGGLVQPGGSLRLSCAASGFTFSSYAMSWVRQAPGKGLEWVSAINASGTRTYYADSVKGRFTISRDNSKNTLYLQMNSLRAEDTAVYYCARGKGNTHKPYGYVRYFDVWGQGTLVTVSS VL: DIVLTQSPATLSLSPGERATLSCRASQSVSSSYLAWYQQKPGQAPRLLIYGASSRATGVPARFSGSGSGTDFTLTISSLEPEDFATYYCLQIYNMPITFGQGTKVEIKR
1.5 | 2.1 | MS-Roche #7.2.H8 Fab (Fab, V domains shown) VH: QVQLVESGGGLVQPGGSLRLSCAASGFTFSSYAMSWVRQAPGKGLEWVSAINASGHKTYYADSVKGRFTISRDNSKNTLYLQMNSLRAEDTAVYYCARGKGNTHKPYGYVRYFDVWGQGTLVTVSS VL: DIVLTQSPATLSLSPGERATLSCRASQSVSSSYLAWYQQKPGQAPRLLIYGASSRATGVPARFSGSGSGTDFTLTISSLEPEDFATYYCQQIYSFPHTFGQGTKVEIKR
1.1 | 1.1 | MS-Roche #7.2.L4 Fab (Fab, V domains shown) VH: not shown VL: DIVLTQSPATLSLSPGERATLSCRASQFIRRSYLAWYQQKPGQAPRLLIYGASSRATGVPARFSGSGSGTDFTLTISSLEPEDFATYYCQQIYSFPHTFGQGTKVEIKR
